Test results from US20240270821A1, “GIP/GLP1/GCG TRI-RECEPTOR AGONISTS AND USES THEREOF” (priority 2023, published 2024).
Non-standard residues stand in square brackets, D forms with d. No end group written: not given here. αMePhe(2-F) = C[C@](N)(Cc1ccccc1F)C(=O)O; Aib = CC(C)(N)C(=O)O

T1: human GIP receptor (human) (UniProt P48546)
T1 sequence (looked up): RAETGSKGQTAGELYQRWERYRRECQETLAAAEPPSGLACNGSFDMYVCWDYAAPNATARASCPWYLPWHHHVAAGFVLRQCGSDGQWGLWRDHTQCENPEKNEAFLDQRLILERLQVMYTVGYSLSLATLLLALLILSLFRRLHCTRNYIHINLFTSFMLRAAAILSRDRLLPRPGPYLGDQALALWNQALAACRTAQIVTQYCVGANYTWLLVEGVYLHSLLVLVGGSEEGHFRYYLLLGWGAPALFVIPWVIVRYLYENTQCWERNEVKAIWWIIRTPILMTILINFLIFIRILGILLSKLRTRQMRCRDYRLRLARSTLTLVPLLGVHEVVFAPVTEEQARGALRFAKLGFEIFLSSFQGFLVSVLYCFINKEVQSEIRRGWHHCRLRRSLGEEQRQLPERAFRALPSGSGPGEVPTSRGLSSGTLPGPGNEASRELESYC


Key:
Test in all cases: cell-based or functional assay
[1] = biological target: T1, human GIP receptor (human)
[2] = biological target: human glucagon receptor (human) (UniProt P47871)
Chain of human glucagon receptor (human) (P47871 26-477): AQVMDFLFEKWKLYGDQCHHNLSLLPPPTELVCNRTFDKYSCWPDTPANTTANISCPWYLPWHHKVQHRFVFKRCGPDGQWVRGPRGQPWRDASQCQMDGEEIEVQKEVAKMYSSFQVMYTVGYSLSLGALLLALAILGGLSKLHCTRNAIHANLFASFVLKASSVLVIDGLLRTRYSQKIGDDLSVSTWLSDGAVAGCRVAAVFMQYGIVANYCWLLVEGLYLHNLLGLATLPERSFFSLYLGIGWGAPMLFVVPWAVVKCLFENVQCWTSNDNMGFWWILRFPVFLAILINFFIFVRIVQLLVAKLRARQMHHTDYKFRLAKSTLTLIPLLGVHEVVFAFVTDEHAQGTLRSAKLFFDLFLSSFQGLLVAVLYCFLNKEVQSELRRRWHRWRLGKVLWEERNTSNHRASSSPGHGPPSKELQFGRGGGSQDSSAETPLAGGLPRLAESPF

hGLP-1R = hGLP-1R (Homo sapiens, UniProt P43220)
Chain of hGLP-1R (P43220 24-463): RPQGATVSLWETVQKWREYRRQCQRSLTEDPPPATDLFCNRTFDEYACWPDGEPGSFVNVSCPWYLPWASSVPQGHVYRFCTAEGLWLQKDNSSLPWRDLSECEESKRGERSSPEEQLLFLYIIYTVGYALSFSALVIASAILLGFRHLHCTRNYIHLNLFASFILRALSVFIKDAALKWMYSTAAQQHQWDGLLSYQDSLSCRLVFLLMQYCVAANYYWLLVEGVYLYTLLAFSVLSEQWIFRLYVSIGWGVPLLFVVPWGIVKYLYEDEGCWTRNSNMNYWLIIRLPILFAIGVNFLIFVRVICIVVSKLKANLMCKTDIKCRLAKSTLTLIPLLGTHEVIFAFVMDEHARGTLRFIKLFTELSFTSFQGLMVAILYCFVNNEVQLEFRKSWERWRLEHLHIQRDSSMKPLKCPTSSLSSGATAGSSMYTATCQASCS

Binder | Relative cAMP EC50 [1] [nM] | cAMP Rel EC50, nM (1% HSA) [1] [nM] | Relative cAMP EC50 [2] [nM] | cAMP Rel EC50, nM (1% HSA) [2] [nM] | Relative cAMP EC50 (hGLP-1R) [nM] | cAMP Rel EC50, nM (1% HSA) (hGLP-1R) [nM] | cAMP Rel EC50 (in the presence of 1% HSA) [1] [nM] | cAMP Rel EC50 (in the presence of 1% HSA) [2] [nM] | cAMP Rel EC50 (in the presence of 1% HSA) (hGLP-1R) [nM]
Y[Aib]QGT[αMePhe(2-F)]TSDYSILLDAKAFIEYLEEGGPSSGAPPPSEG-NH2 (not fully specified (residue 17)) [Example 410] | 0.0708 | 49.3 | 9.94 | 1950 | 0.354 | 84.4 |  |  | 
YXQGTXTSDYXIXLDXKAQXAFIEYLLEGGPSSGEPPPE (synthetic construct; SITE 2: note = 2-Aminoisobutyric Acid; SITE 6: note = alpha-methyl-L-phenylalanine; SITE 11: note = alpha-methyl-L-serine; SITE 13: note = alpha-methyl-leucine; SITE 16: note = L-ornithine; SITE 17: note = Lysine is chemically modified through conjugation of the epsilon-amino gr) [Example 420] | 0.0131 | 2.61 | 2.49 | 433 | 0.205 | 31.3 |  |  | 
YXQGTXTSDYSIXLDKKAQXAFIEYLEEGGPSSGAPPPSE (synthetic construct; SITE 2: note = 2-Aminoisobutyric Acid; SITE 6: note = alpha-methyl-2-fluoro-L-phenylalanine; SITE 13: note = alpha-methyl-leucine; SITE 17: note = Lysine is chemically modified through conjugation of the epsilon-amino group of the Lysine side chain with (2-[2-(2-Amino-ethoxy)-et)) [Example 424] | 0.0154 | 3.21 | 3.12 | 443 | 0.318 | 29.5 |  |  | 
YXQGTXTSDYSILLDKKAQXAFIEYLEEGGPSSGAPPPSE (synthetic construct; SITE 2: note = 2-Aminoisobutyric Acid; SITE 6: note = alpha-methyl-2-fluoro-L-phenylalanine; SITE 17: note = Lysine is chemically modified through conjugation of the epsilon-amino group of the Lysine side chain with (gamma-Glu)2-CO-(CH2)16-CO2H; SITE 20: note = 2-Aminoisobutyric) [Example 433] | 0.0206 | 15.3 | 5.78 | 532 | 0.273 | 43.4 |  |  | 
YXQGTXTSDYSILLDKKAQXAFIEXLEEGGPSSGAPPPSEG (synthetic construct; SITE 2: note = 2-Aminoisobutyric Acid; SITE 6: note = alpha-methyl-2-fluoro-L-phenylalanine; SITE 17: note = Lysine is chemically modified through conjugation of the epsilon-amino group of the Lysine side chain with (2-[2-(2-Amino-ethoxy)-ethoxy]-acetyl)-(gamma-Glu)-CO-(CH2) 16-) [Example 411] | 0.058 | 23.8 | 3.94 | 1170 | 0.709 | 82.1 |  |  | 
YXQGTXTSDYSILLDKKAQXAFIEYLEEGGPSSGAPPPSGE (synthetic construct; SITE 2: note = 2-Aminoisobutyric Acid; SITE 6: note = alpha-methyl-2-fluoro-L-phenylalanine; SITE 17: note = Lysine is chemically modified through conjugation of the epsilon-amino group of the Lysine side chain with (gamma-Glu)2-CO-(CH2)16-CO2H; SITE 20: note = 2-Aminoisobutyric) [Example 435] | 0.0239 | 10.3 | 3.01 | 334 | 0.311 | 33.6 |  |  | 
YXQGTXTSDYSILLDKKAQXAFIEYLEEGGPSSGAPPPSEG (synthetic construct; SITE 2: note = 2-Aminoisobutyric Acid; SITE 6: note = alpha-methyl-2-fluoro-L-phenylalanine; SITE 17: note = Lysine is chemically modified through conjugation of the epsilon-amino group of the Lysine side chain with (gamma-Glu)2-CO-(CH2)16-CO2H; SITE 20: note = 2-Aminoisobutyric) [Example 434] | 0.0226 | 10.6 | 2.84 | 525 | 0.236 | 35 |  |  | 
YXQGTXTSDYSIXLDKKAQXAFIEYLEEGGPSSGAPPPSEG (synthetic construct; SITE 2: note = 2-Aminoisobutyric Acid; SITE 6: note = alpha-methyl-2-fluoro-L-phenylalanine; SITE 13: note = alpha-methyl-leucine; SITE 17: note = Lysine is chemically modified through conjugation of the epsilon-amino group of the Lysine side chain with (2-[2-(2-Amino-ethoxy)-et)) [Example 431] | 0.0157 | 3.73 | 3.32 | 352 | 0.392 | 35.2 |  |  | 
YXQGTXTSDYSILLDKKAQXAFIEFLEEGGPSSGAPPPSEG (not fully specified; synthetic construct; SITE 2: note = 2-Aminoisobutyric Acid; SITE 6: note = alpha-methyl-2-fluoro-L-phenylalanine; SITE 17: note = Lysine is chemically modified through conjugation of the epsilon-amino group of the Lysine side chain with (2-[2-(2-Amino-ethoxy)-ethoxy]-acetyl)-(gamma-Glu)-CO-(CH2) 16-) [Example 412] | 0.0351 | 12.5 | 2.36 | 467 | 0.282 | 46 |  |  | 
YXQGTXTSDYSIXLDKKAQXAFIEYLLETGPSSGAPPPSEG (synthetic construct; SITE 2: note = 2-Aminoisobutyric Acid; SITE 6: note = alpha-methyl-2-fluoro-L-phenylalanine; SITE 13: note = alpha-methyl-leucine; SITE 17: note = Lysine is chemically modified through conjugation of the epsilon-amino group of the Lysine side chain with (2-[2-(2-Amino-ethoxy)-et)) [Example 417] | 0.0144 | 4.46 | 2.83 | 386 | 0.328 | 67 |  |  | 
YXQGTFTSDFSKXLDKKAQXAFIQWLLEGGPSSGAPPPSEG (synthetic construct; SITE 2: note = 2-Aminoisobutyric Acid; SITE 13: note = alpha-methyl-leucine; SITE 17: note = Lysine is chemically modified through conjugation of the epsilon-amino group of the Lysine side chain with (2-[2-(2-Amino-ethoxy)-ethoxy]-acetyl)-(gamma-Glu)-CO-(CH2) 18-CO2H; SITE 20: n) [Example 39] | 0.299 |  | 10.1 |  | 2.13 |  | 30.5 | 1090 | 260
YXQGTXTSDYSILLDKKAQXAFIEYLEEGGPSSGAPPPE (synthetic construct; SITE 2: note = 2-Aminoisobutyric Acid; SITE 6: note = alpha-methyl-2-fluoro-L-phenylalanine; SITE 17: note = Lysine is chemically modified through conjugation of the epsilon-amino group of the Lysine side chain with (2-[2-(2-Amino-ethoxy)-ethoxy]-acetyl)-(gamma-Glu)-CO-(CH2) 16-) [Example 408] | 0.0329 | 15.3 | 1.93 | 472 | 0.253 | 37.9 |  |  | 
YXQGTXTSDXSILLDKKAQXAFIEYLLEGGPSSGAPPPS (synthetic construct; SITE 2: note = 2-Aminoisobutyric Acid; SITE 6: note = alpha-methyl-L-phenylalanine; SITE 10: note = 3-(4-Pyridyl)-L-alanine; SITE 17: note = Lysine is chemically modified through conjugation of the epsilon-amino group of the Lysine side chain with (2-[2-(2-Amino-ethoxy)-ethoxy]-) [Example 418] | 0.0153 | 6.02 | 4.7 | 627 | 0.264 | 36.6 |  |  | 
